Where only a bound is given, the exact number is not on record here.

The target of assay [1] is fibrin (fibrinogen dried on microtiter wells and converted with thrombin). The assay is described as follows: competitive ELISA on fibrin-coated plates, competitor Fn (2.3 nM), 50,000 molar excess. (In general: An ELISA detects its analyte on a solid surface through an enzyme-linked reagent.)
Assay [2] has the same target. The assay is described as follows: direct ELISA on fibrin-coated plates (FIG. 27A).
For assay [3] the target is unchanged. In words: competitive ELISA on fibrin-coated wells, competitor biotinylated Fn (2.3 nM).
The target is the same in assay [4]. The assay is described as follows: competitive ELISA on fibrin-coated wells, competitor biotinylated Fn (2.3 nM), 10 µM of the fragment.
For assay [5] the target is unchanged. In words: competitive ELISA on fibrin-coated wells, Cheng and Prussoff equation from the IC50.
Assay [6] shares this target. In words: competitive ELISA on fibrin-coated wells, reference intact Fn.
The target in assay [7] is fibrin-SEPHAROSE (bovine fibrinogen cross-linked to CNBr-activated SEPHAROSE and converted to fibrin with human thrombin) (bovine) (UniProt P02672). In words: fibrin-SEPHAROSE chromatography of 35S-labeled COS supernatant, densitometry of the autoradiogram.
A further assay has as its target fibrinogen-SEPHAROSE
In words: binding to a fibrinogen-SEPHAROSE column at 37° C. (material eluted with ethylene glycol).

For assay [8], the target named is fibrin (fibrinogen dried on microtiter wells and converted with thrombin). The assay is described as follows: displacement of bound 125I-11 kDa from fibrin-coated wells by 2,000 nM unlabeled 11 kDa.
Assay [9] has the same target. In words: direct ELISA on fibrin-coated wells, reference intact fibronectin.
For assay [10] the target is unchanged. In words: competition on fibrin-coated wells, competitor 125I-11 kDa (90 nM).
The target is the same in assay [11]. The assay is described as follows: competitive ELISA on fibrin-coated wells, competitor biotinylated Fn (2.3 nM), 10 µM of the module pair.
The target is the same in assay [12]. The assay is described as follows: competitive ELISA on fibrin-coated wells, competitor biotinylated Fn (FIG. 29).
Assay [13] has the same target. The assay is described as follows: competitive ELISA on fibrin-coated plates, competitor Fn (2.3 nM).
The target is the same in assay [14]. The assay is described as follows: competitive ELISA on fibrin-coated wells, competitor fibronectin (FIG. 29).
Assay [15] has the same target. In words: competitive ELISA against intact Fn on fibrin.
Assay [16] has the same target. In words: direct ELISA on fibrin-coated wells (FIGS. 27A and 28A).
For assay [17] the target is unchanged. The assay is described as follows: direct binding of 125I-11 kDa to fibrin-coated removable wells, non-linear regression, one binding site model.
For assay [18] the target is unchanged. The assay is described as follows: direct binding of 125I-11 kDa to fibrin-coated wells (15 ng fibrin).

In [1], “recombinant ^7 F1 module of fibronectin (peptide)” gave a % inhibition of Fn binding of less than 20%.

In assay [2], human plasma fibronectin (intact) returned a concentration at 75% of the maximum binding of 2.3 nM and a concentration at saturation of binding of 4.54 nM. In assay [3], this substance yielded a 50% inhibitory concentration (IC50) of 20 nM and a concentration for complete inhibition of 2.2 µM.

Substance “25.9 kDa N-terminal proteolytic fibrin-binding fragment of fibronectin (peptide)” displayed a maximal % inhibition of biotinylated Fn binding in assay [4] of 75%. The substance further yielded a concentration for half-maximal inhibition (IC50) in [3] of 150 nM. Also, the Ki in assay [5] came out at 145 nM. In [6], this substance came in with a fold higher concentration than intact Fn for 50% inhibition of 7.5 fold.

Turning to “^35 S-methionine labeled recombinant ^10 F1-end (expressed in COS cells) (peptide)”, in assay [7], the % of bound protein released by warming to 22° C. was 35% and the % of bound protein that required 6M urea for elution stood at 65%.

In the assay with fibrinogen-SEPHAROSE, “11 kDa C-terminal fibrin-binding fragment of fibronectin (peptide)” displayed a % of the applied material bound of 4 to 5%. Also, the % of bound iodinated 11 kDa displaced in assay [8] turned out to be 42%. In addition, the times more bound than intact fibronectin (mole-per-mole) in assay [9] is 20 times. Further, in [10], the IC50 came out at 605 nM and the concentration at maximum inhibition is 4 µM.

As for “recombinant ^10 F1 module of fibronectin (peptide)”, the % inhibition of biotinylated Fn binding in [3] amounted to 10%.

For the substance “recombinant ^4 F1.^5 F1 module pair of fibronectin (expressed in Saccharomyces cerevisiae) (peptide)”, the maximal % inhibition of biotinylated Fn binding in [11] was 67%. Further, the maximum % inhibition of Fn binding in assay [12] was 67%. In addition, in assay [13], the % inhibition of Fn binding at saturating concentration worked out at 70%, the IC50 is 750 nM and the concentration at maximum inhibition is 10 µM. In [3], the IC50 came out at 700 nM. This substance yielded a % blocking of fibronectin binding in [14] of 36%. For the same substance, in [5], the inhibition constant (Ki) amounted to 695 nM. This substance also registered a % inhibition (so in the source) in assay [15] of 30%.

For the substance biotinylated fibronectin, the concentration at saturation of binding in assay [16] was 4.5 nM.

As to ^125 I-11 kDa fibrin-binding peptide, in [17], the Kd amounted to 154 nM. The same substance showed a concentration at 50% saturation in assay [18] of 90 nM.

In general, IC50 refers to the concentration that gives 50% inhibition. In general, Ki refers to a measure of affinity in units of concentration, obtained from inhibition or displacement. A higher Ki goes with a looser hold on the target. What is called Kd is the free concentration of one partner at which half of the binding sites on the other are occupied at equilibrium, for simple one-to-one binding. Read a low Kd as higher affinity.

For the origin of these results see patent US5792742.
